The values that follow come from a protein production outcome set (Wang et al. 2014).

This data set is described as follows: label from the status in PepcDB records.
As for “MENSLRSTLLDIVKGCIATVALFIAYLELPVIGMLAGVVVPLPALLYDLKRGKWSGLAIVLASALIFMLIAGPAGALLYVLQAGIFSLALPRFLTMGGGPARALASAVAVTVAVITAAAVGYGVTRGVTVEGQVAESLQSSITQAIQLYEKSGVSGADLDELREGMEQAAKSLAQLYPSLFVVGIAMAGGLNLLLLQRFGRRLGLAVPGGSFGKYRNPDHLVWLPICAGFALLAGHDAVTTIALNVLVLTGFLYFIQGMAIIIHLFDRYAAPAFLRYLLYFLLFVQAYLVVAVALFGLLDLWGNFRRPRIPTNL”, the protein production entry is “failed”. Then “MEPCELSANTVIAHPRALTDKMTLIRDAGPSKFQVFPTPISEQGDAYYDAKRQALYDHYHPLEISPVIPIDEKTKLMEEWWGKTHELLIEGGLTYDAIKKSVANSSIAFREGVSELFEFLEKKEIPVLIFSAGLADVIEEVTLKSISLLELLSYFCCLYNEYAFVAYSHSYQVLRQNLDRTFKNVKIVSNRMVFNDDGQLVSFKGKLIHVLNKNEHALDMAAPLHDRLGVDIGEEDEENVNMKERRNVLLMGDHLGDLRMSDGLDYETRISIGFL”, with “failed”; and “MEPRVGNKFRLGRKIGGGSFGEIYLGTNIQTNEEVAIKLENVKTKHPQLLYESKLYKVLQGGTGVPNVKWYGVEGDYNVLVIDLLGPSLEDLFNFCSRKLSLKTVLMLADQMINRIEFVHQKSFLHRDIKPDNFLMGLGRRANQVYVIDFGLAKKYRDSNHQHIPYRENKNLTGTARYASMNTHLGIEQSRRDDLESLGFVLMYFLKGSLPWQGLKAGNKKQKYEKISEKKVSTSIEALCRGYPSEFASYFHYCRSLRFDDKPDYAYLKRLFRDLFIREGFQFDYVFDWTILKYQQSQISTPPPRHHGPVVGPSSALPPAITSAERPSGGDEARPSGWSSGIPRRNSGQIFNSGSLAKQKAPVSSDPAISKDVVLSSSSFLRATGSSRRAAVSSSREAAVLGTDSEPSNPQIVEAGSGSNSKIPVSRNSPIVSSEINKLSSPSRATTSVMKNYEANLKGIESLHF”, with “not failed”; and “MEPSSLVLALEQTSEVLGKEPIVPFAILLVVLLVVPILFERLRLPGIVGLVLSGLVLGPSGWNLFHTKSPMISLLSDIGLVYLMFVAGLEVDLELWRRRQRRALGFGCVSFTIPLLIGTLVGRFFHFGWNTSVLIGSLLTSYSLLAYPIINRLGVISNQAVTITIGATVFTDISALIVLAICIPAFQMGMSNIYQILSLLGWLIIYSIVILVGFDWAGREFFRRSGDDEGNKFLFVLLTVFLAVVVAQLIGIEKILGAFLAGLAVNEAVGEGPVKEKIVFVGSVLFIPIFFINLGLLIDLPGLVNSLFTLQLTSLIVISLVASKFIAAWLAKVFYGYSWQEMLTMWSLSIPQVGTTLAATFVGYHTGLLSSAVLTSVVILMLITATLGPLITSRTARALTTVSITESVDANLPEPQVIETQNGNFTIVVPIYNPHTQQYLVEMAALLAHQAQGRIIPLTIATAAAHMDAPQLESTLQRSERLLAKATSQSQALGVAASPLLRIDDASAPGISRAAREQKANLIVMGWGKRTGLRARLFGNVIDNVLWSSHCPVAVTRLVESPKKIQRILVPVENLITPTLQPVQFAQMLAEANQAQVTVLNVCDRRTSSSKIASRRSQLALLVSKLALPNSPEVQIIAHENAAQAILQAARLYDLVVLPFIRNRTSPGGLALSDVTTQLASQLTCSIVMLGEPQRLQTGNITSVAPNTTTAV”, with “failed”.

With “MEQHHVRSLLKPSAYPDPTGSVELVQTHVSYIFLTDNFAYKVKKPVDFGFLNFSTPDRRRFYCEEEVRLNRRLCPDIYLGVAEVRDTPAGAAFVGEGQVIDHAVKMKRLPADRMLDRLLSAGLAGEPEIRAVARVVGTFHLEAEHSSEIDAFGDLATINANWVENFQQTRPYCGITLSAGDHDFIRGWVERFMAERVDLFAARVGDGRIRDGNGDIHMENICLGADGRVCIFDCIEFNNRFRYGDTAADIAFLLMDFDFVLRPDLGAAFLDEYTRITNDASVVEMIDFYKVYRAFVRGKVESMRLSDPQIPENEKQAAAARASRYFRLARGYAVRQGLPPTLFITCGLTGTGKSRLSRELSLDLGLEIASSDVVRKELAGLRSTERPDQDYGAGIYTDRFSLLTYGELERRARVALEGGRSIVVDATFRRRADRERFGALARDAGATFVILHAVCPEPTIRSRLNSRQKDRSEPSDGTWEVYLRQKDEFDPPSDQEGNLLCIDTSDTASAMVDKVLHGLELLPCGKS”, the protein production result is reported as “failed”. For the sequence “MEQIILDIIEFLKQFSYFGVVLALTFEFIPAEVVLPMVGYWVYEGDMNFWLAVLAGTLGGTTGPLTLYALGYYGGRPLLIKYGKYFFIKEEQIQKADDFFEKYGPVVAFVGRFVPGVRTLISVPCGMAKMNIWKFSIYTFVAMFPLTTLYVYFGMKLGPHWEKAADVVGQYMLPILGGVILIVASIFVYKYMKKRNKTESI”, the protein production entry is listed as “not failed”. Regarding “MEQKQQSERLGTEAIPKLLRSLSIPAMIGMFVMALYNVVDTIFISYAVGIEGVAGVTIAFPIMMIMMSMAGALGIGGASVISRRLGERRGEEANQVFGNILTVILVLSVIGFISAFTLLGPALQLFGATSVTQGYATDYLFPILLGSIFFFFAFAANNIIRSEGNATFAMVTMIVPAVLNILLDVLFIFGLNMGVLGASIATVIAQASVTGLVLRYFLTGKSTLSLHWSDLRMKGSVIKEVCLVGLPAFVQQSSASLMMIAINSMLLRFGSDFYVGVFGLVQRIMMFVMMPMMGIMQAMQPIVGYNYGAKQYSRLRETVMLGFKVATIFSIGIFALLMLFPEALLRVFTADREVIQAGVSAMHILFCVTFLIGAQIVAGGLYQSLGKPKQALILSLSRQIIFLIPLVLILPHIFGLSGVWWAFPIADVLSFILTVVLLYRDRNVFFLKTKEERELDLVKTASST”, the protein production entry is listed as “failed”. The same measure for “MEQLSDSDHRDSADATTSSCQSTTAEDGQCGGGGEAMARGLSAMLESVIKDFDSKALDTLNSQDELSGSLDRLVQDYAQINPIDPIKFLNHYIAIGLTKLLKN”: “failed”; for “MEQNNIKEQLISFFNQACSTHQERLDFICSTRESDTFSSVDVPLEPIKNIIEITKDENQQIEITKIAVNNIKTLSSVGATGQYMASFFSTNSEPAIIFCVIYFLYHFGFLKDNNKKQIIKKAYETIADNIADYLNEN”: “not failed”; for “MEQPMKPTVIITGASSGVGLYGAKALIDKGWHVIMACRNLDKTQKVADELGFPKDSYTIIKLDLGYLDSVRRFVAQFRELGRPLKALVCNAAVYFPLLDEPLWSADDYELSVATNHLGHFLLCNLLLEDLKACPDADKRLIILGTVTANSKELGGKIPIPAPPDLGNFEGFEAGFKKPIAMINNKKFKSGKAYKDSKLCNMLTTRELHRRFHQETGIVFNSLYPGCVADTPLFRNHYSLFRTIFPWFQKNVTKGYVSQELAGERVAMVVADDKFKDSGVHWSWGNRQQAGREAFVQELSEQGSDAQKAQRMWDLSEKLVGLV”: “failed”. Then “MEQPYVYAYPQGSGPSGAPTPQAGGVVVDPKYCAPYPIDMAIVRKMMSLTDGNFVITDVNGNLLFKVKEPVFGLHDKRVLLDGSGTPVVTLREKMVSMHDRWQVFRGGSTDQRDLLYTVKRSSMLQLKTKLDVFLGHNKDEKRCDFRVKGSWLERSCVVYAGESDAIVAQMHRKHTVQSVFLGKDNFSVTVYPNVDYAFIASLVVILDDVNREDRAA”, with “not failed”; and “MEQRPYSLCLLRLSALGDITHVLPLVRTLQRERPQARLHWIIDTMGSKLMDGLDGIHFHVYDKHTGLRGMRALRAELTPLGHFDALLHMQVSLRANLLSAFVPAQRRIGYDHNRSKDLHGLFINERIPDNPGIHVLDAIGSFCEPLGLVQREVRWDLPVSEEARAWAWAQWNNDGRPVLMISPCSSHTHRNWQAKRYAAVAEHASAQGWRIVLCGGRSTLERQTADTILAQTQVPLLDMVGKDTLKQLPALLERADLVMTPDSGPMHIANALGKKVLGLHAASNPHRSGPYSDLRYCVNRYDAAAHKYLGKPSNMLKWGTKIESNGVMDLVTVEDAIAAFERYRADYAHH”, with “failed”; and “MEQYKLVLEGAKQLKWETNEIKDIQDDEIIVKTIAGSISIGAELPQYNGSDVTDPHPFYPRKTGYESYGEVIEVGNQVTHVNVGDKVVSFYGHETIGIVKAHKVIRVPSSIQPKIALLSILSCDAAKGVLKLNPRQDEKVLIIGMGVIGLLACYFLKYYVGIEHVDVVEPNKNRRDFAKKFGTKNIYDSEEKIIETYNYGFECSATNSGFHTLQKALKTNGKICILSDGNIEELTLTANFYQKELQIIGSSDGYDYQKHADWFFEEIGKTPFIEEIFQHEIHYTSLIQCFDELSLGIIKPLKVYVSYE”, with “failed”.

For the sequence “MERDENYLRAKKRVENLKAFYIHLTVYILVNLMLFFINISSDSSKLWFLYPLAGWGIGIVIHALTTFPVGIFGKEWEERKIKEYMEKDK”, the protein production entry was “failed”. On to “MERDTVLTATPTIDADLADATSCATPSRTAVSPLLPVLAALAAVVLWGGAFPAMKVAVQTLGTWQMMWARMVFALLLLVPLARRLAPARIERRDLPLLAGMALMQPCLYFLCESTALQLTTSSQAGVMAASMPLMMAVGGFLLGEKVSPRLWFGVGVSCIGVAWLTSSGGEGGGSAPDPFTGNLLELAAMACATGSSLCIGALISRGKGRWNALTLTGIQTLAGAVFFLPGAPGVIGGVADWSTEVLLAVVYLGGASSLGAFGLYNWALGHMPASRAGNFINLVPVAAIFFGWLLLGETLTTTQYLATGLVMGGVLMGTRAR”, for which the protein production entry is listed as “failed”. Turning to “MERGVDNWKVDCKCGTKDDDGERMLACDGCGVWHHTRCIGINNADALPSKFLCFRCIEL”, the protein production entry was “not failed”. The same measure for “MERHVNYTLIGGLFFLCLVCMVGFILWLGHLGLDDGKYYEYVVYTDKDLGGIATNSPINYKGIQVGNVIKVGFAKDKVGVVRLDLMIKSSVKIRKDSKVAVSSRGFMGLKFLALEQSHNEEFYGSGDKGERILIFKEGLMDRLSGDANQVVQEVMKAIRNVNRILDDENVEKFKHILASVDDLIANLDSRKTQFDSLISNANNLVSNVNNVALDVDKRLKQGQYDFKAMFTPLIMQAQLSLRNIDNFVEKGSALIDKFDANPYKTIFGERK”: “failed”; for “MERKINRREKEKEYEGKHNSLEDTDQGKNCKSTLMTLNVGGYLYITQKQTLTKYPDTFLEGIVNGKILCPFDADGHYFIDRDGLLFRHVLNFLRNGELLLPEGFRENQLLAQEAEFFQLKGLAEEVKSRWEKEQLTPRETTFLEITDNHDRSQGLRIFCNAPDFISKIKSRIVLVSKSRLDGFPEEFSISSNIIQFKYFIKSENGTRLVLKEDNTFVCTLETLKFEAIMMALKCGFRLLTSLDCSKGSIVHSDALHFIK”: “failed”; for “MERKKLIAKFVEIASEKMGKDLETVDEENTFKELGFDSIDVIDLVMFFEDEFALRIEDEEISKIRKVKDLIDIVIKKLEEIDDEVSEG”: “not failed”. Then “MERLAPAKVNLGLSVRFRREDGYHELHTLFAPFSLADRLVVEPVSSGLHFQGPYGRENLAYRAASLYLEAAGQPGGVRILLEKRIPEGAGLGGGSSDAAQVLLALQALYPAEVDLFALARTLGADVPFFLLGRGAEARGVGERLKPLALPPVPAVVFFPGLRVPTPLVYRAVRPEDFGPDLPVEAILEALARGEEPPYWNSLEGPAFRLFPELKEVRGRMRALGLRGVLMSGSGSAFFGLAEGPDHARRAAEALRAWGRAWAGTLGGGDAGSGPA”, with “not failed”; and “MERMMNKRILKGTLTAIAALMSAHAFAGQEVTVYTAFETDLLAKYKSAFEKENPDIEIKWVRDSTGIMTAKLLAEKDNPRAEVVWGLAGSSMALLKDQGVLKPYTPKGANELRANLNDPQAQQAWYGNDAFFNAVCFNEAVAKQLNLPKPQSWEDLTNPVYKGHIAMPNPASSGTGYMQVSAWLQNMGEDKAWDYMQRLDQNIAHYTHSGSKPCVQAGMGEVAIGISMATRGAKLKTQGAPLDVIVPNGIGWESEAVGLVKESDAAKRVVDWSVSKAANELYIESYPIVGHQDVSKQVPNYPNVEKVMAKMDFTQMGVDRARVLQTWSEKFDAKSEPKS”, with “failed”.
